Measurements published in patent US20180193477A1 (Zymeworks, published 2018).

Tests used:
[1] = target: T1, Recombinant CD3epsilon/delta Fc fusion protein (Sino Biological) (UniProt P07766 23-126; P04234 22-105); test: SPR, BioRad ProteOn XPR36, 25 C, anti-Fc capture chip, Equilibrium Fit model, mean of three runs
T1 construct: Bought reagent; also called recombinant CD3 fusion protein; CD3 antigen; not shown: Fc part of the bought fusion protein; not described

[2] = target: T1, Recombinant CD3epsilon/delta Fc fusion …; test: SPR (summary of Example 6)
[3] = target: T2, CD3 on human CD3+ Jurkat T cells (human, UniProt P07766 23-207); test: whole cell FACS binding on Jurkat cells, apparent affinity
T2 construct: whole, on cells; CD3 is a complex of several chains on the cell; also called CD3 epsilon; CD3e
T2 sequence (P07766 23-207): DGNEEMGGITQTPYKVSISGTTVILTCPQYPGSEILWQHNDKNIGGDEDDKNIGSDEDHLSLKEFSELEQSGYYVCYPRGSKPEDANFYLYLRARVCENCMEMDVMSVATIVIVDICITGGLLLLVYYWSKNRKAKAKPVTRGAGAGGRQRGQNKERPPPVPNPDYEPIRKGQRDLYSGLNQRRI

T1 sequence (P07766 23-126, stated change not applied, chain 1 of 2): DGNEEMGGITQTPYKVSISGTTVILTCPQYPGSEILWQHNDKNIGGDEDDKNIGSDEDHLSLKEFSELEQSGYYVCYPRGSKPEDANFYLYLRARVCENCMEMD
T1 sequence (P04234 22-105, stated change not applied, chain 2 of 2): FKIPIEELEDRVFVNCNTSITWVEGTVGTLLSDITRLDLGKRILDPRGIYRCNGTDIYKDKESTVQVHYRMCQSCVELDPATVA

| Binder | Kd [1] [nM] | binding result [2] | Kd [3] [nM] |
| --- | --- | --- | --- |
| v15193, humanized bispecific anti-CD3-CD19 antigen-binding construct (humanized HD37 Fab / humanized OKT3 scFv hVH1/hVL2) (bispecific antibody, human IgG1, kappa, L234A L235A, also called variant 15193) heavy: not shown QVQLVQSGGGVVQPGRSLRLSCKASGYTFTRYTMHWVRQAPGKGLEWIGYINPSRGYTNYNQKVKGRFTISTDKSKNTAYLQMDSLRAEDTGVYFCARYYDDHYSLDYWGQGTLVTVSSVEGGSGGSGGSGGSGGVDDIQMTQSPSSLSASVGDRVTITCSASSSVSYMNWYQQKPGKAPKRLIYDTSKLASGVPSRFSGSGSGTDYTLTISSLQPEDAATYYCQQWSSNPFTFGQGTKLEIKAAEPKSSDKTHTCPPCPAPEAAGGPSVFLFPPKPKDTLMISRTPEVTCVVVSVSHEDPEVKFNWYVDGVEVHNAKTKPREEQYNSTYRVVSVLTVLHQDWLNGKEYKCKVSNKALPAPIEKTISKAKGQPREPQVYVLPPSRDELTKNQVSLLCLVKGFYPSDIAVEWESNGQPENNYLTWPPVLDSDGSFFLYSKLTVDKSRWQQGNVFSCSVMHEALHNHYTQKSLSLSPG light: DIQLTQSPSSLSASVGDRATITCRASQSVDYEGDSYLNWYQQKPGKAPKLLIYDASNLVSGIPSRFSGSGSGTDFTLTISSVQPEDAATYYCQQSTEDPWTFGCGTKLEIKRTVAAPSVFIFPPSDEQLKSGTASVVCLLNNFYPREAKVQWKVDNALQSGNSQESVTEQDSKDSTYSLSSTLTLSKADYEKHKVYACEVTHQGLSSPVTKSFNRGEC | 370 | – | – |
| v15192, humanized bispecific anti-CD3-CD19 antigen-binding construct (humanized HD37 Fab / humanized OKT3 scFv hVH1/hVL1) (bispecific antibody, human IgG1, kappa, L234A L235A, also called variant 15192) heavy: not shown QVQLVQSGGGVVQPGRSLRLSCKASGYTFTRYTMHWVRQAPGKGLEWIGYINPSRGYTNYNQKVKGRFTISTDKSKNTAYLQMDSLRAEDTGVYFCARYYDDHYSLDYWGQGTLVTVSSVEGGSGGSGGSGGSGGVDDIQMTQSPSSLSASVGDRVTITCSASSSVSYMNWYQQKPGKAPKRWIYDTSKLASGVPSRFSGSGSGTDYTLTISSLQPEDAATYYCQQWSSNPFTFGQGTKLEIKAAEPKSSDKTHTCPPCPAPEAAGGPSVFLFPPKPKDTLMISRTPEVTCVVVSVSHEDPEVKFNWYVDGVEVHNAKTKPREEQYNSTYRVVSVLTVLHQDWLNGKEYKCKVSNKALPAPIEKTISKAKGQPREPQVYVLPPSRDELTKNQVSLLCLVKGFYPSDIAVEWESNGQPENNYLTWPPVLDSDGSFFLYSKLTVDKSRWQQGNVFSCSVMHEALHNHYTQKSLSLSPG light: DIQLTQSPSSLSASVGDRATITCRASQSVDYEGDSYLNWYQQKPGKAPKLLIYDASNLVSGIPSRFSGSGSGTDFTLTISSVQPEDAATYYCQQSTEDPWTFGCGTKLEIKRTVAAPSVFIFPPSDEQLKSGTASVVCLLNNFYPREAKVQWKVDNALQSGNSQESVTEQDSKDSTYSLSSTLTLSKADYEKHKVYACEVTHQGLSSPVTKSFNRGEC | – | binds | – |
| v15194, humanized bispecific anti-CD3-CD19 antigen-binding construct (humanized HD37 Fab / humanized OKT3 scFv hVH2/hVL1) (bispecific antibody, human IgG1, kappa, L234A L235A, also called variant 15194) heavy: not shown QVQLVQSGGGVVQPGRSLRLSCKASGYTFTRYTMHWVRQAPGKGLEWIGYINPSRGYTNYNQKVKGRFTISTDNSKNTAYLQMDSLRAEDTGVYFCARYYDDHYSLDYWGQGTLVTVSSVEGGSGGSGGSGGSGGVDDIQMTQSPSSLSASVGDRVTITCSASSSVSYMNWYQQKPGKAPKRWIYDTSKLASGVPSRFSGSGSGTDYTLTISSLQPEDAATYYCQQWSSNPFTFGQGTKLEIKAAEPKSSDKTHTCPPCPAPEAAGGPSVFLFPPKPKDTLMISRTPEVTCVVVSVSHEDPEVKFNWYVDGVEVHNAKTKPREEQYNSTYRVVSVLTVLHQDWLNGKEYKCKVSNKALPAPIEKTISKAKGQPREPQVYVLPPSRDELTKNQVSLLCLVKGFYPSDIAVEWESNGQPENNYLTWPPVLDSDGSFFLYSKLTVDKSRWQQGNVFSCSVMHEALHNHYTQKSLSLSPG light: DIQLTQSPSSLSASVGDRATITCRASQSVDYEGDSYLNWYQQKPGKAPKLLIYDASNLVSGIPSRFSGSGSGTDFTLTISSVQPEDAATYYCQQSTEDPWTFGCGTKLEIKRTVAAPSVFIFPPSDEQLKSGTASVVCLLNNFYPREAKVQWKVDNALQSGNSQESVTEQDSKDSTYSLSSTLTLSKADYEKHKVYACEVTHQGLSSPVTKSFNRGEC | 349 | – | – |
| v15195, humanized bispecific anti-CD3-CD19 antigen-binding construct (humanized HD37 Fab / humanized OKT3 scFv hVH2/hVL2) (bispecific antibody, human IgG1, kappa, L234A L235A, Unconjugated construct as used in SPR and whole cell FACS; also called variant v15195) heavy: not shown QVQLVQSGGGVVQPGRSLRLSCKASGYTFTRYTMHWVRQAPGKGLEWIGYINPSRGYTNYNQKVKGRFTISTDNSKNTAYLQMDSLRAEDTGVYFCARYYDDHYSLDYWGQGTLVTVSSVEGGSGGSGGSGGSGGVDDIQMTQSPSSLSASVGDRVTITCSASSSVSYMNWYQQKPGKAPKRLIYDTSKLASGVPSRFSGSGSGTDYTLTISSLQPEDAATYYCQQWSSNPFTFGQGTKLEIKAAEPKSSDKTHTCPPCPAPEAAGGPSVFLFPPKPKDTLMISRTPEVTCVVVSVSHEDPEVKFNWYVDGVEVHNAKTKPREEQYNSTYRVVSVLTVLHQDWLNGKEYKCKVSNKALPAPIEKTISKAKGQPREPQVYVLPPSRDELTKNQVSLLCLVKGFYPSDIAVEWESNGQPENNYLTWPPVLDSDGSFFLYSKLTVDKSRWQQGNVFSCSVMHEALHNHYTQKSLSLSPG light: DIQLTQSPSSLSASVGDRATITCRASQSVDYEGDSYLNWYQQKPGKAPKLLIYDASNLVSGIPSRFSGSGSGTDFTLTISSVQPEDAATYYCQQSTEDPWTFGCGTKLEIKRTVAAPSVFIFPPSDEQLKSGTASVVCLLNNFYPREAKVQWKVDNALQSGNSQESVTEQDSKDSTYSLSSTLTLSKADYEKHKVYACEVTHQGLSSPVTKSFNRGEC | 427 | – | 44.7 |
